In data set [1] the test system is Aedes aegypti female mosquitoes, Rio de Janeiro strain. Kind of data set: CDC bottle bioassay with deltamethrin, insecticide-resistant Rio de Janeiro strain. Type of data set: in vivo. Here is the method: (§1) FIGS. 5A-C are graphs illustrating the dose-response curves for 3- to 5-day-old Aedes aegypti female mosquitoes on insecticide-susceptible Rockefeller strain (FIG. 5A) and on insecticide-resistant Rio de Janeiro strain (FIG. 5B). Mosquitoes were exposed to different concentrations of deltamethrin in 250-mL glass bottles for up to 24 hours and the percentage of mortality for each time point is shown. FIG. 5C, comparison of the mortality rates of female mosquitoes from Rockefeller (Rock) and Rio de Janeiro (RJ) strains exposed to 2 μg/mL of deltamethrin for different time-points. Data represent mean values of three replicates with standard deviation.
(§2) Mosquitoes were taken from an Ae. aegypti colony of the Rockefeller strain or from a mosquito field population of Ae. aegypti isolated from urban area of Rio de Janeiro, Brazil. Both lineages were reared continuously in the laboratory at 28° C. and 70-80% relative humidity. Adult mosquitoes were maintained in a 10% sucrose solution, and the adult females were fed with sheep blood for egg laying. The larvae were reared on dog/cat food unless stated otherwise.
(§3) Bottles were prepared following the Brogdon and McAllister (1998) protocol [Brogdon and McAllister (1998) Emerg Infect Dis 4:605-613]. […] At 15, 30 and 45 min intervals, the number of live and dead mosquitoes in each bottle was recorded. […]

Data set [2] relates to Aedes aegypti female mosquitoes, Rockefeller strain. Nature of the data set: CDC bottle bioassay with deltamethrin, insecticide-susceptible Rockefeller strain. The data set is classed as in vivo. The settings on record: diagnostic dosage 2 μg/mL of deltamethrin; Rockefeller strain adult females. Here is the method: as §1, §2, §3
The test system of data set [3] is Ae. aegypti Rockefeller strain. Nature of the data set: Oviposition assay after larval dsRNA soaking plus feeding. Type of data set: in vivo, Aedes aegypti. As to conditions: larvae soaked 24 h in 0.5 μg/μL dsRNA, fed twice with agarose plug containing dsRNA; 15 engorged females per cage; vs water control. Here is the method: FIG. 12 is a flowchart illustration depicting introduction of dsRNA into mosquito larvae via soaking with different doses of “naked” dsRNA plus additional larvae feeding with food-containing dsRNA. Step a) 100 larvae from A. aegypti Rockefeller strain (3rd instar) were soaked for 24 hours with the respective dsRNAs (concentration range from 0.02-0.5 μg/μL) or only in water and were then fed 2 times with food plus agarose 2% containing dsRNA until they reach adult stage (Step b). Step c) The adults arising were allowed to copulate for 3-5 days. Step d) mosquitoes were fed with defibrinated sheep blood. Step e) after blood feeding 15 fully-engorged females were transferred into 3 small cages to be assayed for oviposition. Step f) the total number of laid eggs and the percentage of hatched eggs were counted. FIGS. 13A-B are graphs illustrating larvae from Ae. aegypti Rockefeller strain (3rd instar) soaked for 24 hours in 0.5 μg/μL of Aubergine (Aub) or Argonaute-3 (Ago) dsRNAs or water only. […] (FIG. 13A) The total number of laid eggs and the percentage of hatched eggs were counted (FIG. 13B). […]
(§4) Five days after the blood meal, an ovipositon cup was place inside each cage containing 15 females to allow the females to lay their eggs. […] The number of eggs laid was counted and used to check the viability and egg hatching rate.

For data set [4], the system named is Argonaute-3 (AAEL007823) mRNA. Kind of data set: qPCR analysis of Ago-3 mRNA expression after dsRNA treatment. Type of data set: in vivo, Aedes aegypti. As to conditions: vs water; for Ago3 mRNA levels: larvae soaked 24 h in dsRNA, 24 and 48 hours after the end of dsRNA treatment. Here is the method:
Third instar larvae were treated (in groups of 100 larvae) in a final volume of 3 mL of dsRNA solution in autoclaved water (0.5 μg/μL for sodium channel (AAEL008297), PgP (AAEL010379) and Ago3 (AAEL007823) dsRNA, or 0.1 μg/μL for CYP9J26 (JF924909.1). The control group was kept in 3 ml sterile water only. Larvae were soaked in the dsRNA solutions for 24 hr at 27° C., and then transferred into new containers (300 larvae/1500 mL of chlorine-free tap water), which were also maintained at 27° C., and were provided 6 mg/100 mL lab dog/cat diet (Purina Mills) suspended in water as a source of food on a daily basis. As pupae developed, they were transferred to individual vials to await eclosion and sex sorting. For bioassays purpose only females up to five days old were used. See Flowchart 1, FIG. 1 for detailed explanation of this experiment.
Total RNA was extracted from groups of five Ae. aegypti fourth instar larvae and early adult male/female Ae. aegypti, using TRIzol (Invitrogen, Carlsbad, Calif., USA) according to the manufacturer's instructions. RNA was treated with amplification grade DNase I (Invitrogen) and 1 μg was used to synthesize cDNA using a First Strand cDNA Synthesis kit (Invitrogen). PCR products were purified using a QIAquick PCR purification kit (Qiagen). The MEGAscript RNAi kit (Ambion) was then used for in vitro transcription and purification of dsRNAs. See Flowchart 4, FIG. 4 for detailed explanation production off dsRNA.
Approximately 1000 ng first-strand cDNA obtained as described previously was used as template. The qPCR reactions were performed using SYBR® Green PCR Master Mix (Applied Biosystems) following the manufacturer's instructions. […] Raw quantification cycle (Cq) values normalized against those of the tubulin and S7 standards were then used to calculate the relative expression levels in samples using the 2^−ΔΔct method [Livak & Schmittgen, (2001) Methods. […]

In data set [5] the test system is Ae. aegypti Rockefeller strain. Kind of data set: Egg hatching rate after larval dsRNA soaking plus feeding. The data set is classed as in vivo, Aedes aegypti. As to conditions: larvae soaked 24 h in 0.5 μg/μL dsRNA, fed twice with agarose plug containing dsRNA; vs water control. Here is the method: FIG. 12 is a flowchart illustration depicting introduction of dsRNA into mosquito larvae via soaking with different doses of “naked” dsRNA plus additional larvae feeding with food-containing dsRNA. Step a) 100 larvae from A. aegypti Rockefeller strain (3rd instar) were soaked for 24 hours with the respective dsRNAs (concentration range from 0.02-0.5 μg/μL) or only in water and were then fed 2 times with food plus agarose 2% containing dsRNA until they reach adult stage (Step b). Step c) The adults arising were allowed to copulate for 3-5 days. Step d) mosquitoes were fed with defibrinated sheep blood. Step e) after blood feeding 15 fully-engorged females were transferred into 3 small cages to be assayed for oviposition. Step f) the total number of laid eggs and the percentage of hatched eggs were counted. […] (FIG. 13A) The total number of laid eggs and the percentage of hatched eggs were counted (FIG. 13B). […]
as §4
To check the viability of the eggs the oviposition paper were kept to dry and embrionate for a period minimum of 5 days. […] The hatching rate (HR) for each treatment were calculated as follow: HR=total number of hatched larvae/total number of eggs oviposited). […]

With `CC1(C)[C@H](C(=O)O[C@H](C#N)c2cccc(Oc3ccccc3)c2)[C@@H]1C=C(Br)Br` [deltamethrin], the “mosquitoes in the population resistant to deltamethrin” value in data set [1] (Rio de Janeiro (RJ) strain, at diagnostic dosage 2 μg/mL) worked out at 36.05%. The “mosquitoes killed (mortality)” value in data set [1] (diagnostic dosage 2 μg/mL of deltamethrin, Rio de Janeiro strain adult females) worked out at 63.95%. For the same molecule, in data set [2], the “mosquitoes dead (mortality)” value is recorded as 100%.

B1: Ago3: dsRNA targeting Argonaute-3 (AAEL007823), Example 1, SEQ ID NO: 1823 (nucleic acid)
chain: CCCCGTCGACGGCCACGAAGTTACGATCAAGATCATTTACAAGCGCAAACAGCGAATGAGCGAGAACATTCAATTCTACAACATTCTCTTCCAACGCATTATGAAAGTCCTGAAGATGGTCGAGATGGGTCGTAAGAACTTTGACCCCTCGGCCCCGAAACTGATTCCGCAGCATCGTCTGGAGATCTGGCCGGGATACGTTAGCGCTGTGGACGAATATGAGGGCGGCTTGATGTTGAATCTCGACGTGTCCCATCGTGTGCTGCTCCAGACGACGGTTTTGGATCACATCCGAACGCTGGCAAGGGCCAATCCCCAAGATTACAAAAACATGGCCACCAAATCGCTGCTGGGAGCCGTTATATTGACCCGA
modifications: double stranded RNA
Regarding B1, the “oviposition rate (total number of laid eggs)” value in data set [3] is listed as “no difference”. Besides, the “Ago3 mRNA expression” value in data set [4] (adult mosquitoes soaked with dsRNA as larvae) was “reached normal levels”. Besides, the “Ago3 mRNA levels” value in data set [4] is “decreased mRNA levels”; in data set [4] (listed as dsRNA against Ago3), “induce gene silencing”. In addition, the “number of hatched eggs (hatchability)” value in data set [5] stood at 50%.

B2: Aub: dsRNA targeting PIWI protein Aub (AAEL007698), SEQ ID NO: 1858 (nucleic acid)
chain: TCTTCTCCACCACAGCCAATGGCGTACAGGCTGGAGAACAGGCAGATTGGACGGCCCATTTCCGTAACAATCCCATGTTCGCTACGGTGCGGTTGACGCGATGGTATTTGATCGTACCGAACCGGGCTTCACGTGAGGCCAACGATTTCCTGGGCTGCATGATTCAAGCCGCACGCGGTATGCGATTTGAGATTAGTAACTGTGAGGTGGTCACCATTCCGGACGACAACCCAGGTACCTATGTGCGAACATTGGACAATCTGCTGAATAAGGACCCGCAGTTGGTGATGTGCGTCGTGACCAACAATAAGGCCGATCGGTACACCGCCATCAAGAAGAAATGTTGCGTTGATCGTGCCATCCCAACGCAAGTCATGGTACAAAAAACGATCACACCAAAGGGTGGTAATGTACGAACACTCATGTCCGTG
modifications: double stranded RNA
For B2, the “oviposition rate (total number of laid eggs)” value in data set [3] is listed as “no difference”. Further, the “number of hatched eggs (hatchability)” value in data set [5] is recorded as 50%.
